Results on eight molecules are retold here after article PMC8413462, “Eukaryotic Box C/D methylation machinery has two non-symmetric protein assembly sites”.

The target of data set [1] is T1, Snu13 V93IR95V (Saccharomyces cerevisiae, UniProt P39990 1-126, V93I;R95V).
T1 sequence: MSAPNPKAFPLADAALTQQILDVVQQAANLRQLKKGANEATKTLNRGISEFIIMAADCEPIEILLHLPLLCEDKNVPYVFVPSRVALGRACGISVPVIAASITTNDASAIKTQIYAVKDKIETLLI
Briefly: EMSA; EMSA: annealed in 10 mM Tris-HCl, 100 mM NaCl, 1 mM EDTA, pH 7.5; 4 C, 10% native PAGE; 10 pmol Cy5-RNA (~2 uM) or 0.5 nmol unlabeled RNA. RNP: 20 mM Na phosphate, 500 mM NaCl, pH 6.6. Conditions: protein: recombinant, tags: N-terminal His6, TEV-cleaved, label: 5'-Cy5. Background: Mobility shift assays separate free from complexed probe on a gel.

Data set [2] deals with T2, L7Ae (Pyrococcus furiosus, UniProt Q8U160 1-123). The data set is described as follows: EMSA; similar to snR51-kl1; EMSA: annealed in 10 mM Tris-HCl, 100 mM NaCl, 1 mM EDTA, pH 7.5; 4 C, 10% native PAGE; 10 pmol Cy5-RNA (~2 uM) or 0.5 nmol unlabeled RNA. RNP: 20 mM Na phospha.
The target in data set [3] is T2, L7Ae. Briefly: EMSA; EMSA: annealed in 10 mM Tris-HCl, 100 mM NaCl, 1 mM EDTA, pH 7.5; 4 C, 10% native PAGE; 10 pmol Cy5-RNA (~2 uM) or 0.5 nmol unlabeled RNA. RNP: 20 mM Na phospha.
For data set [4], the target named is T3, Snu13 (Saccharomyces cerevisiae, UniProt P39990 1-126).
T3 sequence: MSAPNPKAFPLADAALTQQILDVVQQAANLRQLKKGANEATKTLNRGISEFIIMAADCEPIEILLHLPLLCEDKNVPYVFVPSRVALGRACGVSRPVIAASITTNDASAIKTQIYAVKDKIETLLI
The data set is described as follows: EMSA (ethidium bromide); ~100 uM RNA; EMSA: annealed in 10 mM Tris-HCl, 100 mM NaCl, 1 mM EDTA, pH 7.5; 4 C, 10% native PAGE; 10 pmol Cy5-RNA (~2 uM) or 0.5 nmol unlabeled RNA. RNP: 20 mM Na phosphate, 500 mM NaCl, pH 6.6. Conditions: protein: recombinant; tags: N-terminal His6, TEV-cleaved; k-turn.

For data set [5], the target named is T2, L7Ae. The data set is described as follows: EMSA; affinity not improved over snR51-kl1; EMSA: annealed in 10 mM Tris-HCl, 100 mM NaCl, 1 mM EDTA, pH 7.5; 4 C, 10% native PAGE; 10 pmol Cy5-RNA (~2 uM) or 0.5 nmol unlabeled RNA. RNP: 20 mM Na phospha.
Data set [6] concerns the target T4, Snu13 R95VP96A (Saccharomyces cerevisiae, UniProt P39990 1-126, R95V;P96A).
T4 sequence: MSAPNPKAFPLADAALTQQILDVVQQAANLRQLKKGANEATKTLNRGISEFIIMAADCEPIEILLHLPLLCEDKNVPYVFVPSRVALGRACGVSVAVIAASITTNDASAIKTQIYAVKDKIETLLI
The data set is described as follows: EMSA; better than wild type; EMSA: annealed in 10 mM Tris-HCl, 100 mM NaCl, 1 mM EDTA, pH 7.5; 4 C, 10% native PAGE; 10 pmol Cy5-RNA (~2 uM) or 0.5 nmol unlabeled RNA. RNP: 20 mM Na phosphate, 500 mM NaCl, pH 6.6. Conditions: protein: recombinant; tags: N-terminal His6, TEV-cleaved; label: 5'-Cy5; k-turn.

Data set [7] has as its target T1, Snu13 V93IR95V. Described as above. Conditions: protein: recombinant; tags: N-terminal His6, TEV-cleaved; label: 5'-Cy5; k-turn.
The target in data set [8] is T5, Snu13 R95VI98A (Saccharomyces cerevisiae, UniProt P39990 1-126, R95V;I98A).
T5 sequence: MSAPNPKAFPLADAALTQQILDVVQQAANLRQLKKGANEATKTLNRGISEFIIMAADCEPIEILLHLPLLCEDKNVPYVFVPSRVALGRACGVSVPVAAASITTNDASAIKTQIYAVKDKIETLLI
The description is as above. The conditions noted are these: protein: recombinant; tags: N-terminal His6, TEV-cleaved; label: 5'-Cy5; k-turn.

Data set [9] addresses T4, Snu13 R95VP96A. The data set is described as follows: EMSA; EMSA: annealed in 10 mM Tris-HCl, 100 mM NaCl, 1 mM EDTA, pH 7.5; 4 C, 10% native PAGE; 10 pmol Cy5-RNA (~2 uM) or 0.5 nmol unlabeled RNA. RNP: 20 mM Na phosphate, 500 mM NaCl, pH 6.6. Conditions: protein: recombinant, tags: N-terminal His6, TEV-cleaved, label: 5'-Cy5.

For the molecule UACUAAAUAGUUGAUGA (structured_RNA) [snR51-kl3], the binding result in data set [1] (k-loop) is on record as “binds”.
In the case of UACGAAAUAGUUGAUGA (structured_RNA) [snR51-kl4], the binding result in data set [2] is recorded as “binds”.
The term Kd denotes the constant that tells how readily two partners part at equilibrium. Turning to UACUAGAUUGGUCUCUUUCAAGAAGGGGCUAAUUGAUGA (structured_RNA) [snR51-kl1], the Kd in data set [3] is < 141 nM.
Consider UACGAGAUUGGUCUCUUUCAAGAAGGGGCUAAUUGAUGA (structured_RNA) [snR51-kl2 unlabeled], for which the binding result in [4] is recorded as “binds”.
With UACGAGAUUGGUCUCUUUCAAGAAGGGGCUAAUUGAUGA (structured_RNA) [snR51-kl2], the binding result in data set [5], in data set [6], in data set [7] and in data set [8] was “binds” throughout.
As to ACUGACUGUGAUCAAACGAUCUUGUAGA (structured_RNA) [snR54-kl1], the binding result is reported as “binds” in data set [9] (non-canonical k-turn), “binds” in [1] (non-canonical k-turn) and “no binding” in [3].
For ACUGACUGUGAUCAAACGAUCUUGAAGA (structured_RNA) [snR54-kl2], the binding result in data set [9] and in data set [1] was “binds” each time.
Turning to ACUGAAAUAGUUGUAGA (structured_RNA) [snR54-kl3], in data set [1] (k-loop), the binding result is listed as “binds”.
